# Measurements from paper PMC2852888.
# Like-named read-outs stand apart in the source and are kept apart here.
# Experiments:
# [1] = target: Max b/HLH/Z domain (amino acids 22-113) (UniProt P61244); test: fluorescence polarisation
# [2] = target: Max b/HLH/Z domain (amino acids 22-113) (UniProt P61244); test: fluorescence polarisation; remark: listed apart in the source
# [3] = target: Max b/HLH/Z domain (amino acids 22-113) (UniProt P61244); test: fluorescence polarisation; remark: listed apart in the source
# [4] = target: Max b/HLH/Z domain (amino acids 22-113) (UniProt P61244); test: fluorescence polarisation; remark: listed apart in the source
# Mad1;Max b/HLH/Z [5] = target: T1, Mad1;Max b/HLH/Z (;, UniProt Q05195;P61244 1-221;22-113, |); test: stopped-flow fluorescence anisotropy
# Max b/HLH/Z [6] = target: T2, Max b/HLH/Z (UniProt P61244 22-113); test: stopped-flow fluorescence anisotropy
# [7] = target: T3, c-Myc b/HLH/Z;Max b/HLH/Z (;, UniProt P01106-1;P61244 347-439;22-113, |); test: stopped-flow fluorescence anisotropy
# Max b/HLH/Z monomer = Max b/HLH/Z monomer (UniProt P61244 22-113); test: stopped-flow fluorescence anisotropy
# Mad1;Max b/HLH/Z [8] = target: T1, Mad1;Max b/HLH/Z; test: stopped-flow fluorescence anisotropy; remark: listed apart in the source
# Max b/HLH/Z [9] = target: T2, Max b/HLH/Z; test: stopped-flow fluorescence anisotropy; remark: listed apart in the source
# [10] = target: T3, c-Myc b/HLH/Z;Max b/HLH/Z; test: stopped-flow fluorescence anisotropy; remark: listed apart in the source
# Chain of Max b/HLH/Z domain (amino acids 22-113) (P61244 22-113): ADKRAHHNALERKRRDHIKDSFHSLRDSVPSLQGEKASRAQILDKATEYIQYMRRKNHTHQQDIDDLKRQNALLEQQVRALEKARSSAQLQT
# Chain of c-Myc b/HLH/Z domain (amino acids 347-439) (domain or fragment) (P01106 362-454 limits assumed): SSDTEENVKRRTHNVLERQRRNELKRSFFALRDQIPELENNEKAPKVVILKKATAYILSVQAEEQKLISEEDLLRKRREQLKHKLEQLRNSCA
# T2 sequence (P61244 22-113): as the sequence (P61244 22-113) above
# T1 sequence (Q05195 whole entry, chain 1 of 2): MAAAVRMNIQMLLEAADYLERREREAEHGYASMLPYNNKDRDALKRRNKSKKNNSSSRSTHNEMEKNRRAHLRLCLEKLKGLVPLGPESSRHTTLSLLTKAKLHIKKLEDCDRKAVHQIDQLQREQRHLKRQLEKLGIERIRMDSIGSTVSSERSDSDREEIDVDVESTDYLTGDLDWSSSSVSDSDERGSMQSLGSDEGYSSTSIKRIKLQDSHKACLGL
# T1 sequence (P61244 22-113, chain 2 of 2): as the sequence (P61244 22-113) above
# T3 sequence (P01106 362-454, chain 1 of 2): as the sequence (P01106 362-454 limits assumed) above
# T3 sequence (P61244 22-113, chain 2 of 2): as the sequence (P61244 22-113) above
# Chain of Max b/HLH/Z monomer (P61244 22-113): as above
molecule,measurement,setting,value
c-Myc b/HLH/Z domain (amino acids 347-439) (domain or fragment),kobs (association rate constant),[1],90 s⁻¹
same,association rate constant with the Max·DNA complex,[2],126 s⁻¹
same,"k2 (forward rate constant of the second step, from the intercept)",[2],91 s⁻¹
same,kobs (association rate constant),[2],118 s⁻¹
same,kobs (association rate constant),[3],67 s⁻¹
same,kobs (association rate constant),[4],109 s⁻¹
"MLP E-box 16-mer, FITC-labelled (dsDNA) DNA 1: TAGGCCACGTGACCGG DNA 2: CCGGTCACGTGGCCTA",binding result,Mad1;Max b/HLH/Z [5],binds
same,binding result,Max b/HLH/Z [6],binds
same,binding result,[7],binds
"MLP E-box 16-mer, label not stated (dsDNA) DNA 1: TAGGCCACGTGACCGG DNA 2: CCGGTCACGTGGCCTA",binding result,Max b/HLH/Z monomer,binds
same,binding result,Mad1;Max b/HLH/Z [8],binds
same,binding result,Max b/HLH/Z [9],binds
same,binding result,[10],binds
